According to the supplement of paper PMC9112550, “Optimization of the antimicrobial peptide Bac7 by deep mutational scanning” (BMC Biology, 2022):

tested on: Escherichia coli TOP10; assay: shrunken log2 fold change of peptide-encoding DNA abundance (4.5 h post-induction vs induction); higher = less antimicrobial activity (less host growth inhibition); conditions: time post-induction: 4.5 h; library: site-saturation at positions 5, 18, 19, 20
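Note: peptides expressed intracellularly from a pBAD plasmid library in pooled LB shake-flask culture, induced with 0.3% L-arabinose, DNA abundance read by NGS, three biological replicates, DESeq2 with apeglm shrinkage.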

Row | Sequence | shrunken log2 fold change
1 | RRIRNRPPRLPRPRPRPKDIPRP | 0.0127
2 | RRIRWRPPRLPRPRPRPWHEPRP | 0.356
3 | RRIRIRPPRLPRPRPRPVRTPRP | -0.0633
4 | RRIRDRPPRLPRPRPRPLDVPRP | -0.0992
5 | RRIRMRPPRLPRPRPRPDFEPRP | 0.589
6 | RRIRYRPPRLPRPRPRPRRCPRP | 0.254
7 | RRIRRRPPRLPRPRPRPYRKPRP | 0.0779
8 | RRIRVRPPRLPRPRPRPWPMPRP | 0.0297
9 | RRIRHRPPRLPRPRPRPRHNPRP | -0.4
10 | RRIRSRPPRLPRPRPRPMHWPRP | -0.159
11 | RRIRMRPPRLPRPRPRPRADPRP | 1.73
12 | RRIRDRPPRLPRPRPRPHANPRP | 0.0766
13 | RRIRIRPPRLPRPRPRPAMNPRP | -0.495
14 | RRIRGRPPRLPRPRPRPSADPRP | 1.91
15 | RRIRMRPPRLPRPRPRPDFCPRP | 0.0837
16 | RRIRERPPRLPRPRPRPGKCPRP | -0.205
17 | RRIRDRPPRLPRPRPRPILFPRP | -0.185
18 | RRIRIRPPRLPRPRPRPSGEPRP | -0.246
19 | RRIRQRPPRLPRPRPRPHEPPRP | -0.00369
20 | RRIRMRPPRLPRPRPRPHSPPRP | -0.114
21 | RRIRHRPPRLPRPRPRPNATPRP | 0.255
22 | RRIRARPPRLPRPRPRPDMSPRP | 0.0274
23 | RRIRLRPPRLPRPRPRPTHPPRP | 0.0349
24 | RRIRKRPPRLPRPRPRPNNLPRP | -0.218
25 | RRIRCRPPRLPRPRPRPESPPRP | 0.315

Row | Sequence | shrunken log2 fold change
26 | RRIRDRPPRLPRPRPRPCCLPRP | -0.146
27 | RRIRVRPPRLPRPRPRPPRFPRP | 0.577
28 | RRIRPRPPRLPRPRPRPVNMPRP | 0.0158
29 | RRIRSRPPRLPRPRPRPDIDPRP | -0.15
30 | RRIRFRPPRLPRPRPRPWPRPRP | 0.626
31 | RRIRDRPPRLPRPRPRPLMLPRP | 0.116
32 | RRIRDRPPRLPRPRPRPTYGPRP | -0.257
33 | RRIRVRPPRLPRPRPRPYMWPRP | -0.48
34 | RRIRPRPPRLPRPRPRPMVNPRP | -0.0636
35 | RRIRCRPPRLPRPRPRPDHSPRP | -0.184
36 | RRIRYRPPRLPRPRPRPCMVPRP | -0.251
37 | RRIRVRPPRLPRPRPRPFIFPRP | -0.177
38 | RRIRKRPPRLPRPRPRPQANPRP | 0.066
39 | RRIRARPPRLPRPRPRPYPYPRP | -0.152
40 | RRIRSRPPRLPRPRPRPMQPPRP | 0.0538
41 | RRIRHRPPRLPRPRPRPFCMPRP | -1.09
42 | RRIRGRPPRLPRPRPRPKSIPRP | -0.0446
43 | RRIRERPPRLPRPRPRPLCEPRP | 0.0297
44 | RRIRYRPPRLPRPRPRPQRRPRP | -0.261
45 | RRIRGRPPRLPRPRPRPPSWPRP | 1.24
46 | RRIRFRPPRLPRPRPRPLIPPRP | -0.651
47 | RRIRWRPPRLPRPRPRPPVKPRP | 0.644
48 | RRIRRRPPRLPRPRPRPYTIPRP | -0.566
49 | RRIRWRPPRLPRPRPRPVERPRP | 0.398
50 | RRIRTRPPRLPRPRPRPDNKPRP | -0.272

Row | Sequence | shrunken log2 fold change
51 | RRIRARPPRLPRPRPRPQAPPRP | 0.238
52 | RRIRTRPPRLPRPRPRPAHRPRP | 0.0856
53 | RRIRTRPPRLPRPRPRPGRHPRP | 0.0235
54 | RRIRYRPPRLPRPRPRPQNAPRP | -0.369
55 | RRIRFRPPRLPRPRPRPRFSPRP | 0.033
56 | RRIRRRPPRLPRPRPRPAQFPRP | 0.135
57 | RRIRKRPPRLPRPRPRPWSYPRP | -0.528
58 | RRIRERPPRLPRPRPRPTYEPRP | -1.47
59 | RRIRYRPPRLPRPRPRPIRVPRP | -0.0013
60 | RRIRQRPPRLPRPRPRPSYAPRP | 0.0242
61 | RRIRTRPPRLPRPRPRPVNGPRP | 0.0311
62 | RRIRSRPPRLPRPRPRPGIVPRP | 0.119
63 | RRIRRRPPRLPRPRPRPWQNPRP | -0.111
64 | RRIRYRPPRLPRPRPRPSCFPRP | -0.361
65 | RRIRPRPPRLPRPRPRPAFHPRP | 0.189
66 | RRIRVRPPRLPRPRPRPNTSPRP | -0.391
67 | RRIRIRPPRLPRPRPRPTGWPRP | 0.19
68 | RRIRGRPPRLPRPRPRPSPAPRP | 0.901
69 | RRIRDRPPRLPRPRPRPQGVPRP | 0.0763
70 | RRIRHRPPRLPRPRPRPNDIPRP | -0.0322
71 | RRIRFRPPRLPRPRPRPDWVPRP | 0.0788
72 | RRIRGRPPRLPRPRPRPLWPPRP | 0.836
73 | RRIRYRPPRLPRPRPRPLTQPRP | -0.416
74 | RRIRLRPPRLPRPRPRPTHLPRP | -0.12
75 | RRIRYRPPRLPRPRPRPGIMPRP | 0.0185
